{
  "source": "patent US20180000768A1",
  "about": "“INTESTINAL FXR AGONISM ENHANCES GLP-1 SIGNALING TO RESTORE PANCREATIC BETA CELL FUNCTIONS” (Salk Institute for Biological Studies, priority 2015, published 2018)",
  "key": {"[1]": {"tested_on": "isolated islets", "test": "gene expression after direct ex vivo treatment of isolated islets", "format": "cell-based, mouse", "conditions": "24 hours ex vivo, XL335 1 μM, Fex 1 μM", "experimental": "Leptin-deficient ob/ob mice were treated daily with vehicle, Fex, or the analogue Fex-D (50 mg/kg) via P.O. for 14 days (A) Chemical structures of fexaramine and Fex-D (B) Schematic of the experimental design (C) Serum glucose levels (D) Glucose tolerance test (E) Insulin secretion in vivo (F) GLP-1 secretion in vivo (G) Heatmap showing hierarchal clustering of gene expression changes in islet induced by Fex (100 mg/kg, 4 wks) and FexD (50 mg/kg, 2 weeks) treatment in ob/ob mice (in vivo); by treatment of islets with XL335 (1 μM), Fex (1 μM), mFgf15 and hFgf19 (24 hours ex vivo); and mFgf15 (0.15 mg/kg, 2 weeks) and INT777 (Tgr5, 60 mg/kg, 4 weeks) treatment of ob/ob mice (in vivo). Gene expression was measured by RNA-Seq and changes are expressed as Z-score. (H) Ven diagram of changes in gene expression in pancreatic islets induced by FEX (100 mg/kg for 5 weeks) and FEX-D (50 mg/kg for 14 days). […] Data represent the mean±STD. Statistical analysis was performed with the Student's t test. *p<0.05, **p<0.01.\nNext, primary islets were isolated from mice treated by Fex-D to compare gene expression changes."}, "[2]": {"tested_on": "Leptin-deficient ob/ob mice", "test": "metabolic phenotype and glucose homeostasis of treated ob/ob mice", "format": "in vivo, mouse", "conditions": "FGF15 treatment for 2 weeks", "experimental": "Leptin-deficient ob/ob mice were purchased from Jackson laboratory (stock no. 000632). Each mouse consumed 100 mg per kg of body weight Fex (in corn oil) per day by oral gavage for 5 weeks. For in vivo analog study, each mouse consumed 50 mg per kg of body weight Fex-D (in corn oil) per day by oral gavage for 14 days. For GLP-1 receptor antagonist study, each mouse was daily treated with 100 μg per kg of body weight Exendin 9-39 amide (Abcam) via intraperitoneal injection for 2 weeks. For INT-777 study, each mouse was daily gavaged with 60 mg per kg of body weight INT-777 (in corn oil) for 5 weeks. […] Core body temperature was measured with a clinical rectal thermometer (Thermalert model TH-5; Physitemp). […] Tail blood was drawn at indicated time intervals, and blood glucose level was measured with a One Touch Ultra glucometer (LifeScan). Body composition was measured with Echo MRI-100 body composition analyzer (Echo Medical Systems). […]\nReal-time metabolic analyses were conducted in a Comprehensive Lab Animal Monitoring System (Columbus Instruments). CO2 production, O2 consumption, RQ (relative rates of carbohydrate versus fat oxidation) and ambulatory counts were determined for 4 consecutive days and nights, with at least 24-h for adaptation before data recording. […]"}, "[3]": {"tested_on": "ob/ob mice", "test": "gene expression (RNA-Seq, QPCR) in tissues of treated ob/ob mice", "format": "in vivo, mouse", "conditions": "FGF15 injection", "experimental": "Total RNA was isolated from cell pellets treated with RNAlater using the RNA mini kit (Qiagen) and treated with DNaseI (Qiagen) for 30 minutes at room temperature. Sequencing libraries were prepared from 100-500 ng total RNA using the TruSeq RNA Sample Preparation Kit v2 (Illumina) according to the manufacturer's protocol. Briefly, mRNA was purified, fragmented, and used for first-, then second-strand cDNA synthesis followed by adenylation of 3′ ends. Samples were ligated to unique adapters and subjected to PCR amplification. Mulitplexed libraries were then validated using the 2100 BioAnalyzer (Agilent), normalized, and pooled for sequencing. RNA-Seq libraries prepared from two biological replicates for each experimental condition were sequenced on the Illumina HiSeq 2500 using bar-coded multiplexing and a 100 bp read length.\nImage analysis and base calling were performed with Illumina CASAVA-1.8.2. This yielded a median of 29.9M usable reads per sample. Short read sequences were mapped to a UCSC mm9 reference sequence using the RNA-seq aligner STAR. Known splice junctions from mm9 were supplied to the aligner and de novo junction discovery was also permitted. […] Transcript expression was calculated as gene-level relative abundance in fragments per kilobase of exon model per million mapped fragments and employed correction for transcript abundance bias. […]"}},
  "data": [
    {"molecule": "FGF15: FGF15 protein injected in ob/ob mice or applied to islets (protein, UniProt O35622 26-218, looked up) Fibroblast growth factor 15: RPLAQQSQSVSDEDPLFLYGWGKITRLQYLYSAGPYVSNCFLRIRSDGSVDCEEDQNERNLLEFRAVALKTIAIKDVSSVRYLCMSADGKIYGLIRYSEEDCTFREEMDCLGYNQYRSMKHHLHIIFIQAKPREQLQDQKPSNFIPVFHRSFFETGDQLRSKMFSLPLESDSMDPFRMVEDVDHLVKSPSFQK", "values": [
      {"measurement": "transcriptional changes seen in islets in vivo with Fex and Fex-D", "setting": "[1]", "result": "not observed"},
      {"measurement": "blood glucose levels", "setting": "[2]", "result": "significantly reduced"},
      {"measurement": "glucose uptake in the skeletal muscle", "setting": "[2]; soleus", "result": "without affecting"},
      {"measurement": "reg family gene expression in islets", "setting": "[3]", "result": "upregulated"}
    ]}
  ]
}
